Assay results published in paper PMC10201434, “The DNA replication initiation protein DnaD recognises a specific strand of the Bacillus subtilis chromosome origin” (Nucleic Acids Research, 2021).
Residue numbers refer to the chain shown, from its start.

T1: DnaD (Bacillus subtilis 168CA, UniProt P39787 1-232)
T1 sequence: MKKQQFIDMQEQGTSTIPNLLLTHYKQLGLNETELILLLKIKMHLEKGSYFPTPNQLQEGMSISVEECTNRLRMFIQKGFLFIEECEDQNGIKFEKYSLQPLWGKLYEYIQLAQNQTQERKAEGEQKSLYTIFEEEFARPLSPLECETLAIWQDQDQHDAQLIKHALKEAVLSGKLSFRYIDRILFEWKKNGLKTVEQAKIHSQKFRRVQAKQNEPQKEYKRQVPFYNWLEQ

T2: DnaD1-205 (Bacillus subtilis 168CA, UniProt P39787 1-205)
T2 sequence: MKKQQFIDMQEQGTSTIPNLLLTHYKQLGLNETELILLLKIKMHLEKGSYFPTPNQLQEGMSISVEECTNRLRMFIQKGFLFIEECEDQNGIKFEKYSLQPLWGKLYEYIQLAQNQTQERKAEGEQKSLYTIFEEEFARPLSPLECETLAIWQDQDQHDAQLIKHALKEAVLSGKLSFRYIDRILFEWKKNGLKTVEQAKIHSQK

T3: DnaD1-224 (Bacillus subtilis 168CA, UniProt P39787 1-224)
T3 sequence: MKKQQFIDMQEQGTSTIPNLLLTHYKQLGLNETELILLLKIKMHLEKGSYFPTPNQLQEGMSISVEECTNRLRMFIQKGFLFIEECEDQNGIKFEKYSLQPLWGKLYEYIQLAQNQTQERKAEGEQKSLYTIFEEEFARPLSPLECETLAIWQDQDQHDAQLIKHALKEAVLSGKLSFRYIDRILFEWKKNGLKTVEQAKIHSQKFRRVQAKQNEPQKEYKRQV

T4: DnaD L22A (Bacillus subtilis 168CA, UniProt P39787 1-232, L22A)
T4 sequence: T1 sequence with L22A

T5: DnaD F6A (Bacillus subtilis 168CA, UniProt P39787 1-232, F6A)
T5 sequence: T1 sequence with F6A

B1: DnaD^1-205 (truncation lacking the entire C-terminal tail) (domain or fragment, Bacillus subtilis, UniProt P39787 1-205, looked up)
chain: T2 sequence
notes: DnaD, Bacillus subtilis 168CA, residues 1-205; variant lacking the entire DnaD^CTT; made from pSF17; source: E. coli BL21(DE3)-pLysS, purified (HisTrap, His14-SUMO tag digested, second HisTrap flow-through)
B2: DnaD^1-224 (truncation lacking the DnaB interaction region, the last eight residues) (domain or fragment, Bacillus subtilis, UniProt P39787 1-224, looked up)
chain: T3 sequence
notes: DnaD, Bacillus subtilis 168CA, residues 1-224; variant lacking the last eight amino acid residues of the DnaD^CTT; made from pSF17; source: E. coli BL21(DE3)-pLysS, purified (HisTrap, His14-SUMO tag digested, second HisTrap flow-through)
B3: ssDNA 1 (oCW1036) (ssDNA)
DNA: TCACTCAAAGGCGGTAATAC
B4: ssDNA 2 (oCW1124) (ssDNA)
DNA: GTATTACCGCCTTTGAGTGA
B5: polyT(40) (oCW837) (ssDNA)
DNA: TTTTTTTTTTTTTTTTTTTTTTTTTTTTTTTTTTTTTTTT
B6: DRE (oCW1039) (ssDNA)
DNA: CTACTATTACTTCTACTA
B7: polyC with two TnnT (oCW1128) (ssDNA)
DNA: CTCCTCCCCCCCCTCCTC
B8: TnnT spacing (oCW1491) (ssDNA)
DNA: CTCCTCCCCCCCTCCTCC
B9: TnnT spacing (oCW1492) (ssDNA)
DNA: CTCCTCCCCCCTCCTCCC
B10: TnnT spacing (oCW1493) (ssDNA)
DNA: CTCCTCCCCCTCCTCCCC
B11: TnnT spacing (oCW1494) (ssDNA)
DNA: CTCCTCCCCTCCTCCCCC
B12: TnnT spacing (oCW1495) (ssDNA)
DNA: CTCCTCCCTCCTCCCCCC
B13: TnnT spacing (oCW1496) (ssDNA)
DNA: CTCCTCCTCCTCCCCCCC
B14: TnnT spacing (oCW1497) (ssDNA)
DNA: CTCCTCTCCTCCCCCCCC
B15: TnnT juxtaposed (oCW1498) (ssDNA)
DNA: CTCCTTCCTCCCCCCCCC
B16: polyT(15) (oCW1029) (ssDNA)
DNA: TTTTTTTTTTTTTTT
B17: polyT(10) (oCW834) (ssDNA)
DNA: TTTTTTTTTT

Assays:
[1] = target: the molecule itself; assay: SEC-MALS; 20°C; 40 mM Tris-HCl pH 8, 500 mM NaCl, 1 mM EDTA, 20 mM imidazole, 2.5% v/v glycerol; 100 μl injected
[2] = target: the molecule itself; assay: SEC; Superdex 200 Increase 10/300GL, 4°C; 40 mM Tris-HCl pH 8, 500 mM NaCl, 1 mM EDTA, 20 mM imidazole; 500 μl samples
DnaD = target: T1, DnaD; assay: fluorescence polarisation; FP: 10 mM HEPES-KOH pH 7.5, 1 mM Mg acetate, 100 mM K glutamate, 20 C, 1.875 nM DNA, DnaD up to 500 nM, 10 min; Bpa crosslinking conditions not in material; settings: protein: recombinant; tags: His14-SUMO tag removed; chain copies: 4; label: fluorescein 5'
DnaD1-205 = target: T2, DnaD1-205; assay: as above; settings: protein: recombinant; tags: His14-SUMO tag removed; chain copies: 4; label: fluorescein 5'
DnaD1-224 = target: T3, DnaD1-224; assay: as above; settings: protein: recombinant; tags: His14-SUMO tag removed; chain copies: 4; label: fluorescein 5'
DnaD L22A = target: T4, DnaD L22A; assay: as above; settings: protein: recombinant; tags: His14-SUMO tag removed; label: fluorescein 5'
DnaD F6A = target: T5, DnaD F6A; assay: as above; settings: protein: recombinant; tags: His14-SUMO tag removed; chain copies: 2; label: fluorescein 5'

| Binder | binding result (DnaD) | further results |
| --- | --- | --- |
| B1 |  | stoichiometry N [1]: 4 |
| B2 |  | stoichiometry N [2]: 4 |
| B3 | binds |  |
| B4 | binds |  |
| B5 | binds | binding result (DnaD1-205): no binding; binding result (DnaD1-224): binds |
| B6 | binds |  |
| B7 | binds | binding result (DnaD L22A): no binding; binding result (DnaD F6A): no binding |
| B8 | binds |  |
| B9 | binds |  |
| B10 | binds |  |
| B11 | binds |  |
| B12 | binds |  |
| B13 | binds |  |
| B14 | binds |  |
| B15 | binds |  |
| B16 | binds |  |
| B17 | no binding |  |
